In US20110091994A1, “Methods for Screening Compounds for Treating and/or Preventing an Hepatitis C Virus Infection” (priority 2008, published 2011):

Assays:
[1] = system: HCV ORFs (Gal4-DB fusions); type: binding, HCV genotype 1b, isolate con1; conditions: human protein listed by gene symbol; the value names the HCV protein it interacts with
[2] = target: T1, HCV ORFs (Gal4-DB fusions) (Hepatitis C virus genotype 1b, UniProt Q9WMX2); type: binding, HCV genotype 1b, isolate con1; conditions: HCV protein NS3 as bait; human protein as prey
T1 construct: expressed in transfected cells; host or cells: Saccharomyces cerevisiae MAV203 (IMAP1) / AH109 (IMAP2)

[3] = target: T2, HCV proteins (Hepatitis C virus genotype 1b, UniProt Q9WMX2); assay: Validation by Y2H pairwise matrices; type: binding; conditions: validation of interaction with HCV protein NS3;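 further: yeast two-hybrid pairwise tests of interactions first found in Y2H screens of HCV bait proteins against human cDNA libraries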
T2 construct: expressed in transfected cells
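Wherever IMAP Y2H IMAP1 (number of IST) is given: yeast two-hybrid screens using HCV genotype 1b proteins fused to Gal4-DB as baits against prey cDNA libraries from human spleen and foetal brain, IMAP1 via transformation and IMAP2 via mating.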
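Wherever IMAP Y2H IMAP2 (number of IST) is given: yeast two-hybrid screens using HCV genotype 1b proteins fused to Gal4-DB as baits against prey cDNA libraries from human spleen and foetal brain, IMAP1 via transformation and IMAP2 via mating.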
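Wherever Interaction with viral protein is given: yeast two-hybrid screens using HCV genotype 1b proteins fused to Gal4-DB as baits against prey cDNA libraries from human spleen and foetal brain, IMAP1 via transformation and IMAP2 via mating.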

T2 sequence (Q9WMX2 1027-1657): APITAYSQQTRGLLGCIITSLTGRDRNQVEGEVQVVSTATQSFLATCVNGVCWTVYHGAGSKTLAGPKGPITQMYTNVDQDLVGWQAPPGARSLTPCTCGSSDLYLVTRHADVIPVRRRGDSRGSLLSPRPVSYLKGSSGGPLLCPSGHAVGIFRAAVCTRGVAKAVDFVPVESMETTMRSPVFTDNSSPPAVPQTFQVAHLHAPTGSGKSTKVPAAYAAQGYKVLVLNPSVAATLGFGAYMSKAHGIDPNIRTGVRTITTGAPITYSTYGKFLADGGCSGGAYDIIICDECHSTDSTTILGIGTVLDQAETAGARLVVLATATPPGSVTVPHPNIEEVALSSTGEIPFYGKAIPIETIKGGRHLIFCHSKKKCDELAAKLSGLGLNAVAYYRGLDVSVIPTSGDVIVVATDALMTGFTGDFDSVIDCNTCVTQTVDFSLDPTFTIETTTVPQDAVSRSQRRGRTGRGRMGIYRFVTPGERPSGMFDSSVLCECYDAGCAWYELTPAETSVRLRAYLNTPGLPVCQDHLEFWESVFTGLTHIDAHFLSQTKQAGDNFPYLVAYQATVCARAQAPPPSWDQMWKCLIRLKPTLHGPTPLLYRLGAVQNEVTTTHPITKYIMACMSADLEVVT
T1 sequence (Q9WMX2 1027-1657): as above

Row | Molecule | Interaction with viral protein [1] | IMAP Y2H IMAP1 (number of IST) [2] | Y2H matrices [3] | IMAP Y2H IMAP2 (number of IST) [2]
1 | GNB2 (protein, UniProt P62879 2-340, looked up) Guanine nucleotide-binding …: SELEQLRQEAEQLRNQIRDARKACGDSTLTQITAGLDPVGRIQMRTRRTLRGHLAKIYAMHWGTDSRLLVSASQDGKLIIWDSYTTNKVHAIPLRSSWVMTCAYAPSGNFVACGGLDNICSIYSLKTREGNVRVSRELPGHTGYLSCCRFLDDNQIITSSGDTTCALWDIETGQQTVGFAGHSGDVMSLSLAPDGRTFVSGACDASIKLWDVRDSMCRQTFIGHESDINAVAFFPNGYAFTTGSDDATCRLFDLRADQELLMYSHDNIICGITSVAFSRSGRLLLAGYDDFNCNIWDAMKGDRAGVLAGHDNRVSCLGVTDDGMAVATGSWDSFLKIWN | NS3 | 1 | + | –
2 | FUCA2 (protein, UniProt Q9BTY2 29-467, looked up) Plasma alpha-L-fucosidase: HSATRFDPTWESLDARQLPAWFDQAKFGIFIHWGVFSVPSFGSEWFWWYWQKEKIPKYVEFMKDNYPPSFKYEDFGPLFTAKFFNANQWADIFQASGAKYIVLTSKHHEGFTLWGSEYSWNWNAIDEGPKRDIVKELEVAIRNRTDLRFGLYYSLFEWFHPLFLEDESSSFHKRQFPVSKTLPELYELVNNYQPEVLWSDGDGGAPDQYWNSTGFLAWLYNESPVRGTVVTNDRWGAGSICKHGGFYTCSDRYNPGHLLPHKWENCMTIDKLSWGYRREAGISDYLTIEELVKQLVETVSCGGNLLMNIGPTLDGTISVVFEERLRQMGSWLKVNGEAIYETHTWRSQNDTVTPDVWYTSKPKEKLVYAIFLKWPTSGQLFLGHPKAILGATEVKLLGHGQPLNWISLEQNGIMVELPQLTIHQMPCKWGWALALTNVI | NS3 | 2 | + | –
3 | KIF17 (protein, UniProt Q9P2E2 1-1029, looked up) Kinesin-like protein KIF17: MASEAVKVVVRCRPMNQRERELRCQPVVTVDCARAQCCIQNPGAADEPPKQFTFDGAYHVDHVTEQIYNEIAYPLVEGVTEGYNGTIFAYGQTGSGKSFTMQGLPDPPSQRGIIPRAFEHVFESVQCAENTKFLVRASYLEIYNEDVRDLLGADTKQKLELKEHPEKGVYVKGLSMHTVHSVAQCEHIMETGWKNRSVGYTLMNKDSSRSHSIFTISIEMSAVDERGKDHLRAGKLNLVDLAGSERQSKTGATGERLKEATKINLSLSALGNVISALVDGRCKHVPYRDSKLTRLLQDSLGGNTKTLMVACLSPADNNYDETLSTLRYANRAKNIRNKPRINEDPKDALLREYQEEIKKLKAILTQQMSPSSLSALLSRQVPPDPVQVEEKLLPQPVIQHDVEAEKQLIREEYEERLARLKADYKAEQESRARLEEDITAMRNSYDVRLSTLEENLRKETEAVLQVGVLYKAEVMSRAEFASSAEYPPAFQYETVVKPKVFSTTDTLPSDDVSKTQVSSRFAELPKVEPSKSEISLGSSESSSLEETSVSEAFPGPEEPSNVEVSMPTEESRSRYFLDECLGQEAAGHLLGEQNYLPQEEPQEVPLQGLLGLQDPFAEVEAKLARLSSTVARTDAPQADVPKVPVQVPAPTDLLEPSDARPEAEAADDFPPRPEVDLASEVALEVVRTAEPGVWLEAQAPVALVAQPEPLPATAGVKRESVGMEVAVLTDDPLPVVDQQQVLARLQLLEQQVVGGEQAKNKDLKEKHKRRKRYADERRKQLVAALQNSDEDSGDWVLLNVYDSIQEEVRAKSKLLEKMQRKLRAAEVEIKDLQSEFQLEKIDYLATIRRQERDSMLLQQLLEQVQPLIRRDCNYSNLEKILRESCWDEDNGFWKIPHPVITKTSLPVAVSTGPQNKPARKTSAADNGEPNMEDDRYRLMLSRSNSENIASNYFRSKRASQILSTDARKSLTHHNSPPGLSCPLSNNSAIPPTQAPEMPQPRPFRLESLDIPFTKAKRKKSKSNFGSEPL | NS3 | 2 | + | –
4 | FRMPD4 (protein, UniProt Q14CM0 1-1322, looked up) FERM and PDZ …: MDVFSFVKIAKLSSHRTKSSGWPPPSGTWGLSQVPPYGWEMTANRDGRDYFINHMTQAIPFDDPRLESCQIIPPAPRKVEMRRDPVLGFGFVAGSEKPVVVRSVTPGGPSEGKLIPGDQIVMINDEPVSAAPRERVIDLVRSCKESILLTVIQPYPSPKSAFISAAKKARLKSNPVKVRFSEEVIINGQVSETVKDNSLLFMPNVLKVYLENGQTKSFRFDCSTSIKDVILTLQEKLSIKGIEHFSLMLEQRTEGAGTKLLLLHEQETLTQVTQRPSSHKMRCLFRISFVPKDPIDLLRRDPVAFEYLYVQSCNDVVQERFGPELKYDIALRLAALQMYIATVTTKQTQKISLKYIEKEWGLETFLPSAVLQSMKEKNIKKALSHLVKANQNLVPPGKKLSALQAKVHYLKFLSDLRLYGGRVFKATLVQAEKRSEVTLLVGPRYGISHVINTKTNLVALLADFSHVNRIEMFSEEESLVRVELHVLDVKPITLLMESSDAMNLACLTAGYYRLLVDSRRSIFNMANKKNTATQETGPENKGKHNLLGPDWNCIPQMTTFIGEGEQEAQITYIDSKQKTVEITDSTMCPKEHRHLYIDNAYSSDGLNQQLSQPGEAPCEADYRSLAQRSLLTLSGPETLKKAQESPRGAKVSFIFGDFALDDGISPPTLGYETLLDEGPEMLEKQRNLYIGSANDMKGLDLTPEAEGIQFVENSVYANIGDVKSFQAAEGIEEPLLHDICYAENTDDAEDEDEVSCEEDLVVGEMNQPAILNLSGSSDDIIDLTSLPPPEGDDNEDDFLLRSLNMAIAAPPPGFRDSSDEEDSQSQAASFPEDKEKGSSLQNDEIPVSLIDAVPTSAEGKCEKGLDNAVVSTLGALEALSVSEEQQTSDNSGVAILRAYSPESSSDSGNETNSSEMTESSELATAQKQSENLSRMFLATHEGYHPLAEEQTEFPASKTPAGGLPPKSSHALAARPATDLPPKVVPSKQLLHSDHMEMEPETMETKSVTDYFSKLHMGSVAYSCTSKRKSKLADGEGKAPPNGNTTGKKQQGTKTAEMEEEASGKFGTVSSRDSQHLSTFNLERTAFRKDSQRWYVATEGGMAEKSGLEAATGKTFPRASGLGAREAEGKEEGAPDGETSDGSGLGQGDRFLTDVTCASSAKDLDNPEDADSSTCDHPSKLPEADESVARLCDYHLAKRMSSLQSEGHFSLQSSQGSSVDAGCGTGSSGSACATPVESPLCPSLGKHLIPDASGKGVNYIPSEERAPGLPNHGATFKELHPQTEGMCPRMTVPALHTAINTEPLFGTLRDGCHRLPKIKETTV | NS3 | 1 | + | –
5 | HOMER3 (protein, UniProt Q9NSC5 1-361, looked up) Homer protein homolog 3: MSTAREQPIFSTRAHVFQIDPATKRNWIPAGKHALTVSYFYDATRNVYRIISIGGAKAIINSTVTPNMTFTKTSQKFGQWADSRANTVYGLGFASEQHLTQFAEKFQEVKEAARLAREKSQDGGELTSPALGLASHQVPPSPLVSANGPGEEKLFRSQSADAPGPTERERLKKMLSEGSVGEVQWEAEFFALQDSNNKLAGALREANAAAAQWRQQLEAQRAEAERLRQRVAELEAQAASEVTPTGEKEGLGQGQSLEQLEALVQTKDQEIQTLKSQTGGPREALEAAEREETQQKVQDLETRNAELEHQLRAMERSLEEARAERERARAEVGRAAQLLDVSLFELSELREGLARLAEAAP | NS3 | 4 | + | 1
6 | IQWD1 (protein, UniProt Q58WW2 1-860, looked up) DDB1- and CUL4-associated …: MSRGGSYPHLLWDVRKRSLGLEDPSRLRSRYLGRREFIQRLKLEATLNVHDGCVNTICWNDTGEYILSGSDDTKLVISNPYSRKVLTTIRSGHRANIFSAKFLPCTNDKQIVSCSGDGVIFYTNVEQDAETNRQCQFTCHYGTTYEIMTVPNDPYTFLSCGEDGTVRWFDTRIKTSCTKEDCKDDILINCRRAATSVAICPPIPYYLAVGCSDSSVRIYDRRMLGTRATGNYAGRGTTGMVARFIPSHLNNKSCRVTSLCYSEDGQEILVSYSSDYIYLFDPKDDTARELKTPSAEERREELRQPPVKRLRLRGDWSDTGPRARPESERERDGEQSPNVSLMQRMSDMLSRWFEEASEVAQSNRGRGRSRPRGGTSQSDISTLPTVPSSPDLEVSETAMEVDTPAEQFLQPSTSSTMSAQAHSTSSPTESPHSTPLLSSPDSEQRQSVEASGHHTHHQSDNNNEKLSPKPGTGEPVLSLHYSTEGTTTSTIKLNFTDEWSSIASSSRGIGSHCKSEGQEESFVPQSSVQPPEGDSETKAPEESSEDVTKYQEGVSAENPVENHINITQSDKFTAKPLDSNSGERNDLNLDRSCGVPEESASSEKAKEPETSDQTSTESATNENNTNPEPQFQTEATGPSAHEETSTRDSALQDTDDSDDDPVLIPGARYRAGPGDRRSAVARIQEFFRRRKERKEMEELDTLNIRRPLVKMVYKGHRNSRTMIKEANFWGANFVMSGSDCGHIFIWDRHTAEHLMLLEADNHVVNCLQPHPFDPILASSGIDYDIKIWSPLEESRIFNRKLADEVITRNELMLEETRNTITVPASFMLRMLASLNHIRADRLEGDRSEGSGQENENEDEE | NS3 | 2 | + | –
7 | FIGNL1 (protein, UniProt Q6PIW4 1-674, looked up) Fidgetin-like protein 1: MQTSSSRSVHLSEWQKNYFAITSGICTGPKADAYRAQILRIQYAWANSEISQVCATKLFKKYAEKYSAIIDSDNVESGLNNYAENILTLAGSQQTDSDKWQSGLSINNVFKMSSVQKMMQAGKKFKDSLLEPALASVVIHKEATVFDLPKFSVCGSSQESDSLPNSAHDRDRTQDFPESNRLKLLQNAQPPMVTNTARTCPTFSAPVGESATAKFHVTPLFGNVKKENHSSAKENIGLNVFLSNQSCFPAACENPQRKSFYGSGTIDALSNPILNKACSKTEDNGPKEDSSLPTFKTAKEQLWVDQQKKYHQPQRASGSSYGGVKKSLGASRSRGILGKFVPPIPKQDGGEQNGGMQCKPYGAGPTEPAHPVDERLKNLEPKMIELIMNEIMDHGPPVNWEDIAGVEFAKATIKEIVVWPMLRPDIFTGLRGPPKGILLFGPPGTGKTLIGKCIASQSGATFFSISASSLTSKWVGEGEKMVRALFAVARCQQPAVIFIDEIDSLLSQRGDGEHESSRRIKTEFLVQLDGATTSSEDRILVVGATNRPQEIDEAARRRLVKRLYIPLPEASARKQIVINLMSKEQCCLSEEEIEQIVQQSDAFSGADMTQLCREASLGPIRSLQTADIATITPDQVRPIAYIDFENAFRTVRPSVSPKDLELYENWNKTFGCGK | NS3 | 1 | + | –
